Laboratory results published in US20250186541A1, “DLL3 TARGETING PEPTIDES AND CONSTRUCTS THEREOF” (MARIANA ONCOLOGY INC., priority 2023, published 2025).
Numbered stars: 1 amine (or outer) side, 2 acyl side, 3 side chain; on linkers, the order of the positions; unused ones are H or OH. Bridge positions count the residues as written; N and C are the ends. Square brackets hold non-standard residues; d marks the D form. Side chains are listed from the residue outwards. * marks the point of attachment. Ala(piperidin-4-yl) = O=C([C@H](CC1CCN([*:3])CC1)N[*:1])[*:2]; DOTA = O=C(O)CN1CCN(CC(=O)O)CCN(CC(=O)*)CCN(CC(=O)O)CC1; γGlu = O=C(O)[C@H](CCC(=O)[*:2])N[*:1]; 1Nal = N[C@@H](Cc1cccc2ccccc12)C(=O)O; 3Pal = N[C@@H](Cc1cccnc1)C(=O)O; 4Pal = N[C@@H](Cc1ccncc1)C(=O)O; NMeQ = CN[C@@H](CCC(N)=O)C(=O)O; NMeL = CN[C@@H](CC(C)C)C(=O)O; Chg = N[C@H](C(=O)O)C1CCCCC1; dNle = CCCC[C@@H](N)C(=O)O; dNMeA = CN[C@H](C)C(=O)O; Ahx = NCCCCCC(=O)O

T1: Biotinylated human DLL3 (human, UniProt Q9NYJ7 27-492, biotinylated (site not stated))
T1 construct: also called Delta-like ligand 3; Delta Like Canonical Notch Ligand 3
T1 sequence (looked up): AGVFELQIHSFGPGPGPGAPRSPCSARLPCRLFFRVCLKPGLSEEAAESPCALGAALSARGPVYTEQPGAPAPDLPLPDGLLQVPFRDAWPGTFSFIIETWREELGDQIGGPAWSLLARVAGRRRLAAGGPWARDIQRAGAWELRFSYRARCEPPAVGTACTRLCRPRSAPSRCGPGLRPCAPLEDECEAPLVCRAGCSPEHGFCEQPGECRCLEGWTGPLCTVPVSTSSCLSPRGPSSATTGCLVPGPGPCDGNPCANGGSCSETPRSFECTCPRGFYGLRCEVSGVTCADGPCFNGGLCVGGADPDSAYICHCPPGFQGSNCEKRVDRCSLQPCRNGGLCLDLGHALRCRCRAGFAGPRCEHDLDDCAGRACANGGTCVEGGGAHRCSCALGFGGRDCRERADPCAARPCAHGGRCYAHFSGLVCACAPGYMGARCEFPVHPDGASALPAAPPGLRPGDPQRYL

B1: Cpd #105 (peptide)
peptide: Ac-[Chg]SDC[1Nal]LQWNCPFD[dK](DOTA)-NH2
modifications: disulfide 4-10
B2: Cpd #112 (peptide)
peptide: Ac-[Chg]SDC[1Nal]L[3Pal]WNCPFD[dK](DOTA)-NH2
modifications: disulfide 4-10
SMILES: CC(=O)N[C@H](C(=O)N[C@@H](CO)C(=O)N[C@@H](CC(=O)O)C(=O)N[C@H]1CSSC[C@@H](C(=O)N2CCC[C@H]2C(=O)N[C@@H](Cc2ccccc2)C(=O)N[C@@H](CC(=O)O)C(=O)N[C@H](CCCCNC(=O)CN2CCN(CC(=O)O)CCN(CC(=O)O)CCN(CC(=O)O)CC2)C(N)=O)NC(=O)[C@H](CC(N)=O)NC(=O)[C@H](Cc2c[nH]c3ccccc23)NC(=O)[C@H](Cc2cccnc2)NC(=O)[C@H](CC(C)C)NC(=O)[C@H](Cc2cccc3ccccc23)NC1=O)C1CCCCC1
B3: Cpd #92 (peptide)
peptide: {DOTA-Ahx}-SDCW[NMeL]QWNCPFD-NH2
modifications: disulfide 3-9
B4: Cpd #94 (peptide)
peptide: Ac-[Chg]SDC[1Nal]LQWNC[dNMeA]FD[dK](DOTA)-NH2
modifications: disulfide 4-10
B5: Cpd #88 (peptide)
peptide: Ac-SDCWLQWNCPFD[dK]([γGlu-DOTA])-NH2
modifications: disulfide 3-9
B6: Cpd #99 (peptide)
peptide: Ac-[Chg]SDCWLQK(DOTA)NCPFD-NH2
modifications: disulfide 4-10
SMILES: CC(=O)N[C@H](C(=O)N[C@@H](CO)C(=O)N[C@@H](CC(=O)O)C(=O)N[C@H]1CSSC[C@@H](C(=O)N2CCC[C@H]2C(=O)N[C@@H](Cc2ccccc2)C(=O)N[C@@H](CC(=O)O)C(N)=O)NC(=O)[C@H](CC(N)=O)NC(=O)[C@H](CCCCNC(=O)CN2CCN(CC(=O)O)CCN(CC(=O)O)CCN(CC(=O)O)CC2)NC(=O)[C@H](CCC(N)=O)NC(=O)[C@H](CC(C)C)NC(=O)[C@H](Cc2c[nH]c3ccccc23)NC1=O)C1CCCCC1
B7: Cpd #98 (peptide)
peptide: Ac-[Chg]SDCWK(DOTA)QWNCPFD-NH2
modifications: disulfide 4-10
SMILES: CC(=O)N[C@H](C(=O)N[C@@H](CO)C(=O)N[C@@H](CC(=O)O)C(=O)N[C@H]1CSSC[C@@H](C(=O)N2CCC[C@H]2C(=O)N[C@@H](Cc2ccccc2)C(=O)N[C@@H](CC(=O)O)C(N)=O)NC(=O)[C@H](CC(N)=O)NC(=O)[C@H](Cc2c[nH]c3ccccc23)NC(=O)[C@H](CCC(N)=O)NC(=O)[C@H](CCCCNC(=O)CN2CCN(CC(=O)O)CCN(CC(=O)O)CCN(CC(=O)O)CC2)NC(=O)[C@H](Cc2c[nH]c3ccccc23)NC1=O)C1CCCCC1
B8: Cpd #106 (peptide)
peptide: Ac-[Chg][dS]DC[1Nal]LQWNCPFD[dK](DOTA)-NH2
modifications: disulfide 4-10
B9: Cpd #5 (peptide)
peptide: Ac-SDCWLQWNCPFD-NH2
modifications: disulfide 3-9
B10: Cpd #91 (peptide)
peptide: Ac-SK(DOTA)CWLQWNCPFD-NH2
modifications: disulfide 3-9
SMILES: CC(=O)N[C@@H](CO)C(=O)N[C@@H](CCCCNC(=O)CN1CCN(CC(=O)O)CCN(CC(=O)O)CCN(CC(=O)O)CC1)C(=O)N[C@H]1CSSC[C@@H](C(=O)N2CCC[C@H]2C(=O)N[C@@H](Cc2ccccc2)C(=O)N[C@@H](CC(=O)O)C(N)=O)NC(=O)[C@H](CC(N)=O)NC(=O)[C@H](Cc2c[nH]c3ccccc23)NC(=O)[C@H](CCC(N)=O)NC(=O)[C@H](CC(C)C)NC(=O)[C@H](Cc2c[nH]c3ccccc23)NC1=O
B11: Cpd #108 (peptide)
peptide: Ac-[dA][dS]DC[1Nal]LQWNCPFD[dK](DOTA)-NH2
modifications: disulfide 4-10
B12: Cpd #96 (peptide)
peptide: Ac-[Chg]SK(DOTA)CWLQWNCPFD-NH2
modifications: disulfide 4-10
SMILES: CC(=O)N[C@H](C(=O)N[C@@H](CO)C(=O)N[C@@H](CCCCNC(=O)CN1CCN(CC(=O)O)CCN(CC(=O)O)CCN(CC(=O)O)CC1)C(=O)N[C@H]1CSSC[C@@H](C(=O)N2CCC[C@H]2C(=O)N[C@@H](Cc2ccccc2)C(=O)N[C@@H](CC(=O)O)C(N)=O)NC(=O)[C@H](CC(N)=O)NC(=O)[C@H](Cc2c[nH]c3ccccc23)NC(=O)[C@H](CCC(N)=O)NC(=O)[C@H](CC(C)C)NC(=O)[C@H](Cc2c[nH]c3ccccc23)NC1=O)C1CCCCC1
B13: Cpd #90 (peptide)
peptide: Ac-SDCWLQWK(DOTA)CPFD-NH2
modifications: disulfide 3-9
SMILES: CC(=O)N[C@@H](CO)C(=O)N[C@@H](CC(=O)O)C(=O)N[C@H]1CSSC[C@@H](C(=O)N2CCC[C@H]2C(=O)N[C@@H](Cc2ccccc2)C(=O)N[C@@H](CC(=O)O)C(N)=O)NC(=O)[C@H](CCCCNC(=O)CN2CCN(CC(=O)O)CCN(CC(=O)O)CCN(CC(=O)O)CC2)NC(=O)[C@H](Cc2c[nH]c3ccccc23)NC(=O)[C@H](CCC(N)=O)NC(=O)[C@H](CC(C)C)NC(=O)[C@H](Cc2c[nH]c3ccccc23)NC1=O
B14: Cpd #87 (peptide)
peptide: Ac-SDCWLK(DOTA)WNCPFD-NH2
modifications: disulfide 3-9
B15: Cpd #93 (peptide)
peptide: {DOTA-Ahx}-SDCWL[NMeQ]WNCPFD-NH2
modifications: disulfide 3-9
B16: Cpd #97 (peptide)
peptide: Ac-[Chg]SDCK(DOTA)LQWNCPFD-NH2
modifications: disulfide 4-10
SMILES: CC(=O)N[C@H](C(=O)N[C@@H](CO)C(=O)N[C@@H](CC(=O)O)C(=O)N[C@H]1CSSC[C@@H](C(=O)N2CCC[C@H]2C(=O)N[C@@H](Cc2ccccc2)C(=O)N[C@@H](CC(=O)O)C(N)=O)NC(=O)[C@H](CC(N)=O)NC(=O)[C@H](Cc2c[nH]c3ccccc23)NC(=O)[C@H](CCC(N)=O)NC(=O)[C@H](CC(C)C)NC(=O)[C@H](CCCCNC(=O)CN2CCN(CC(=O)O)CCN(CC(=O)O)CCN(CC(=O)O)CC2)NC1=O)C1CCCCC1
B17: Cpd #107 (peptide)
peptide: Ac-[dNle][dS]DC[1Nal]LQWNCPFD[dK](DOTA)-NH2
modifications: disulfide 4-10
B18: Cpd #113 (peptide)
peptide: Ac-[Chg]SDC[1Nal]L[4Pal]WNCPFD[dK](DOTA)-NH2
modifications: disulfide 4-10
SMILES: CC(=O)N[C@H](C(=O)N[C@@H](CO)C(=O)N[C@@H](CC(=O)O)C(=O)N[C@H]1CSSC[C@@H](C(=O)N2CCC[C@H]2C(=O)N[C@@H](Cc2ccccc2)C(=O)N[C@@H](CC(=O)O)C(=O)N[C@H](CCCCNC(=O)CN2CCN(CC(=O)O)CCN(CC(=O)O)CCN(CC(=O)O)CC2)C(N)=O)NC(=O)[C@H](CC(N)=O)NC(=O)[C@H](Cc2c[nH]c3ccccc23)NC(=O)[C@H](Cc2ccncc2)NC(=O)[C@H](CC(C)C)NC(=O)[C@H](Cc2cccc3ccccc23)NC1=O)C1CCCCC1
B19: Cpd #111 (peptide)
peptide: Ac-[Chg]SDC[1Nal]L[Ala(piperidin-4-yl)]WNCPFD[dK](DOTA)-NH2
modifications: disulfide 4-10

target: T1, Biotinylated human DLL3; assay: SPR, biotin-hDLL3 on SA chip

Row | Binder | Kd [nM] | binding result
1 | B1 | 0.59 | –
2 | B2 | 2.56 | –
3 | B3 | 5.56 | –
4 | B4 | 0.54 | –
5 | B5 | 9.7 | –
6 | B6 | – | no binding
7 | B7 | 93 | –
8 | B8 | 1.2 | –
9 | B9 | – | no binding
10 | B10 | 95.7 | –
11 | B11 | 2.89 | –
12 | B12 | 145 | –
13 | B13 | > 300 | –
14 | B14 | 33.3 | –
15 | B15 | – | no binding
16 | B16 | – | no binding
17 | B17 | 1.9 | –
18 | B18 | 0.89 | –
19 | B19 | 1.24 | –
